In patent US20170296524A1:

Biological target: T1, MCT1 (monocarboxylate transporter 1), endogenous (human), P53985
T1 chain: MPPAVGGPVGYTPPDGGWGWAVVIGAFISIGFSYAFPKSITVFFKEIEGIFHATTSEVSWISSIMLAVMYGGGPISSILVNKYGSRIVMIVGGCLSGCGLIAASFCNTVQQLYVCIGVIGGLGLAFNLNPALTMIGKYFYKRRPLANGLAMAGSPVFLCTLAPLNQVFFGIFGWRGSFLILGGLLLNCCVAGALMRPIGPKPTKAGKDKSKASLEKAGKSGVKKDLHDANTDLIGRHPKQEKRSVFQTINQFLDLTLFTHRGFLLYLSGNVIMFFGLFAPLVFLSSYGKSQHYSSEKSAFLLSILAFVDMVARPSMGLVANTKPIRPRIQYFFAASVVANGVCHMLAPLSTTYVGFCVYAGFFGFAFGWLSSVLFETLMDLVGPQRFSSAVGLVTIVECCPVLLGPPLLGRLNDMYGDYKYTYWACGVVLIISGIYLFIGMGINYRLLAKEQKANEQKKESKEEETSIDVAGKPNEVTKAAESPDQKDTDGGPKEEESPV
Assay: tandem affinity purification of CRBN-SF, mass spectrometry
Conditions: remark: other sources report otherwise

B1: Strep-Flag tagged CRBN (CRBN-SF), Q96SW2 1-442 (protein, human, UniProt Q96SW2 1-442, looked up, not shown: small tags and cut ends)
chain: MAGEGDQQDAAHNMGNHLPLLPAESEEEDEMEVEDQDSKEAKKPNIINFDTSLPTSHTYLGADMEEFHGRTLHDDDSCQVIPVLPQVMMILIPGQTLPLQLFHPQEVSMVRNLIQKDRTFAVLAYSNVQEREAQFGTTAEIYAYREEQDFGIEIVKVKAIGRQRFKVLELRTQSDGIQQAKVQILPECVLPSTMSAVQLESLNKCQIFPSKPVSREDQCSYKWWQKYQKRKFHCANLTSWPRWLYSLYDAETLMDRIKKQLREWDENLKDDSLPSNPIDFSYRVAACLPIDDVLRIQLLKIGSAIQRLRCELDIMNKCTSLCCKQCQETEITTKNEIFSLSLCGPMAAYVNPHGYVHETLTVYKACNLNLIGRPSTEHSWFPGYAWTVAQCKICASHIGWKFTATKKDMSPQKFWGLTRSALLPTIPDTEDEISPDKVILCL
- unique peptides identified in the screen (unique peptides): 6
